Molecular target: T1, human NKG2D (human, UniProt P26718 1-216)
T1 construct: whole, on cells; also called hNKG2D; expressed on CHO-K1/hNKG2D-11 cells
T1 sequence (looked up): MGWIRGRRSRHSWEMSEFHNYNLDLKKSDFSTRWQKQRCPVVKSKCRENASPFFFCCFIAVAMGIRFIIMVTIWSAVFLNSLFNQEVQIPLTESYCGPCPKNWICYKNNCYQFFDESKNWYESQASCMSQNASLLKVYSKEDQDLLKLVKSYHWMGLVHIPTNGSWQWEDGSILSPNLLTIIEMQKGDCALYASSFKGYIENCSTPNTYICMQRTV
Test: flow cytometry on CHO-K1/hNKG2D-11 cells, detected with anti-human IgG (Fc)-FITC
Protocol: The human NKG2D-expressing CHO-K1 cell strain CHO-K1/hNKG2D-11 obtained in Example 7 was washed twice with PBS/1% FBS and suspended in 50 μl PBS/1% FBS containing 10 μl concentrate of the culture supernatant of the CSP2-Fc-expressing COS7 cells obtained in Example 6. The suspension was reacted at 0° C. for 60 minutes for binding them, then washed twice with 200 μl PBS/1% FBS, and suspended in 50 μl PBS/1% FBS containing 1 μl anti-human IgG (Fc)-FITC conjugate (Caltag). The suspension was reacted at 0° C. for 60 minutes for labeling, then washed twice with 200 μl PBS/1% FBS, and suspended again in 600 μl PBS/1% FBS. When the suspension was analyzed with a flow cytometer FACS Vantage (Becton Dickinson), cells with high intensity of FITC fluorescence were recognized, and the evident binding of CSP2-Fc protein to human NKG2D expressed on the surface of CHO-K1 cells was observed (FIG. 2A).

binding result: binds
B1: CSP2-Fc protein (fusion protein of CSP2 protein with human IgG Fc region) (Fc fusion)
chain: HSLCFNFTIKSLSRPGQPWCEAQVFLNKNLFLQYNSDNNMVKPLGLLGKKVNATSTWGELTQTLGEVGRDLRMLLCDIKPQIKTSDPSTLQVEMFCQREAERCTGASWQFAINGEKSLLFDAMNMTWTVINHEASKIKETWKKDRGLEKYFRKLSKGDCDHWLREFLGHWEAMPEPTVSPVNASDIHWSSS
notes: Used as a 100-fold concentrate of the culture supernatant of transfected COS7 cells, not purified; The construct encodes CSP2 residues 1-221; not shown: human IgG Fc region, amplified by PCR from human spleen IgG Fc cDNA (Clontech); Subclass, limits and the residues encode
